The text below walks through data of doi:10.1101/684738.

For the assay, the target named is E. coli RNAP core enzyme (E. coli). Nature of the assay: single-molecule fluorescence colocalisation.

“Cy5-labeled E. coli σ^70 factor (from UniProt P00579 1-613) (natural protein)” yielded a percent of Cy3-RNA signal colocalized with Cy5 on σ^70 of 35% and a percent of initially-stalled transcription complexes retaining σ of 75%.
